Laboratory results reported in patent US20180320200A1.

Molecular target: cell surface of 293 AAV cells (human)
Test: cell binding on ice for 1 h at 200000 TU/cell; unbound particles recovered from the medium and titrated on TG1 E. coli by colony counting; relative to control

In the case of “M13.PAAV vector (non-targeted phagemid/AAV particle lacking RGD4C) (from UniProt P69168 19-424)”, the binding efficiency (percentage of vectors bound to the cell surface) is reported as 7.1%.
Work on “RGD.PAAV vector (phagemid/AAV particle displaying the RGD4C targeting peptide on the pIII minor coat protein)” yielded a binding efficiency (percentage of vectors bound to the cell surface) of 58.2%.
